Laboratory results as given in patent US12201699, “Compositions and methods for promoting homology directed repair” (Editas Medicine, Inc.).

Molecular target: Tet Repressor (TetR) (UniProt P04483 P04483:1-207)
Assay: EMSA; lacks Tet operator; 500 nM TetR, 50 nM DNA, 300 mM NaCl, pH 7.7
Conditions: chain copies: 2 (inferred)
Source text: The nucleotide sequence to which the Tet Repressor protein binds, typically consists of several repeats (5 or more) of the Tet Operator (TetO)19 base pair sequence, each followed by a 17 bp spacer. Here, we evaluated the binding of the Tet repressor protein to several Tet Operator sequence-containing variants that included spacer sequences of differing sizes, or no spacer sequences. Specifically, we investigated […] To test the binding capacity of the Tet Operator sequence-containing variants experimentally, 500 nM of recombinant TetR protein (Imgen BioSciences, Inc.; Cat. No. P-1002-0.5 mg) was incubated with 50 nM of template DNA in binding buffer (50 mM HEPES, 20% glycerol, 300 mM NaCl, pH 7.7) and protein binding to the Tet Operator sequence-containing variants was analyzed using an electrophoretic mobility shift assay using a 10% polyacrylamide gel (FIG. 8B).

Tet Repressor (TetR), sequence (P04483 whole entry, one chain of several): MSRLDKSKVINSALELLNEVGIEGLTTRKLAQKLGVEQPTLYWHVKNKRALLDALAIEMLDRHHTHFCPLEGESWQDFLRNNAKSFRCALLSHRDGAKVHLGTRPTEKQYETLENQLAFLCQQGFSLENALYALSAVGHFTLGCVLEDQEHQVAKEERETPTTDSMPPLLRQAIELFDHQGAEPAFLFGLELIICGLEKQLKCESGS

Binder	binding result
ssODN-109 (control) (ssDNA) DNA: AACAGACACCATGGTGCATCTGACTCGTGTGGAGAAGTCGGCCGTTACTGCCCTGCAGGGCAAGCTTAACGTGGATGAAGTTCGTGGTGAGGCCCTGGGCAGGTTGGTA	no binding
ssODN-179 (control) (ssDNA) DNA: TGCTTCTGACACAACTGTGTTCACTAGCAACCTCAAACAGACACCATGGTGCATCTGACTCGTGTGGAGAAGTCGGCCGTTACTGCCCTGCAGGGCAAGCTTAACGTGGATGAAGTTCGTGGTGAGGCCCTGGGCAGGTTGGTATCAAGGTTACAAGACAGGTTTAAGGAGACCAATAG	no binding
